# Measured values as given in patent US20050244939A1 (AJINOMOTO, published 2005).
# Target: the molecule itself
# Experiment: X-ray crystal structure (self-association of subunits)
# Procedure: The crystals were moved into 0.15M sodium citrate buffer (pH 5.6) containing 25% glycerol and 1.5M ammonium phosphate, and rapidly cooled to −173° C. by blowing nitrogen gas. The X-ray diffraction data of PtALD native crystals was collected using an X-ray diffractometer R-AXIS V++ (Rigaku Co., Ltd.) at the Photon Factory Beamline 6B of the High Energy Accelerator Research Organization (Tsukuba, Japan). The X-ray wavelength was fixed at 1.0 angstrom and the distance from the crystal to an imaging plate detector was 180 mm. Exposure time and an oscillation angle per one imaging plate frame were 120 sec and 0.8°, respectively, and the data for 150 frames was collected. In the crystallographic parameters, the space group was P6₃22, and the lattice constants were a=94.38 angstrom and c=111.49 angstrom. The asymmetric unit contains one aldolase molecule, and the water content of the crystal was 60%. The crystal was diffracted to approximately 1.5 angstrom resolution. The data processing was made with a program Crystal Clear (Rigaku Co., Ltd.). The Rmerge, which indicates the quality of the data, was 0.097 between 40.0-1.5 angstrom resolution, and 0.260 between 1.55-1.50 angstrom resolution in the most outer shell. The completeness of the data was 99.2% between 40.0-1.5 angstrom resolution, and 99.9% between 1.55-1.50 angstrom resolution in the most outer shell. […]
protein,measurement,value
"aldolase derived from Pseudomonas taetrolens ATCC4683 (PtALD), wild-type (enzyme, It was purified and crystallised; The asymmetric unit contains one subunit; also called IHOG aldolase; recombinant PtALD) MSLPGSRIYPSPPQAPRSLLDAFQNVVTPHISDNLGRHIGARGLTRYNHTGKLVGTALTVKTRPGDNLYIYKALTLIEPGHVLVIDAQGDATNAVIGELIKLYAQQRGCVGFVVDGAIRDVASFEDTPCYARSVVHCGPYKSGPGEINVPVSIGGMIINPGDIIVGDEDGLVAFSPDHAEQVLVKAREHDAHEQQVKAEIATGAIDQSWLDKVLEKAGLAN",binding result,binds
